These results are taken from PMC2928020 (The Journal of Cell Biology, 2010).

Where no end group is shown, it is not given here. The star is where a group is joined. FITC = O=C1OC2(c3ccc(O)cc3Oc3cc(O)ccc32)c2ccc(NC(=S)*)cc21

This assay addresses SNX27 PDZ domain, wild type (residues 39-131 of rat SNX27) (rat, UniProt Q8K4V4 39-131). Description: fluorescence polarisation. In general terms: Polarisation of emitted light reports the rotation of a fluorescent probe.

For orientation: Kd means the constant that tells how readily two partners part at equilibrium. Read a high Kd as lower affinity.

B1: FITC-labeled peptide corresponding to the C-terminal six residues of the β2AR (TNDSLL) (peptide)
peptide: {FITC}-TNDSLL
Take B1: binding was characterised by a dissociation constant (Kd) of 17 ± 1.2 µM.
